Experiments:
Assay in all cases: direct ELISA, tau peptide coated on plate
tau peptide 256-285 = biological target: T1, tau peptide 256-285 (human)
T1 construct: Synthetic peptide (EZBiolabs), numbered on tau 2N4R
T1 peptide: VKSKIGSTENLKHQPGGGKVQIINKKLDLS

tau peptide 314-342 = biological target: T2, tau peptide 314-342 (human)
T2 construct: Synthetic peptide (EZBiolabs), numbered on tau 2N4R
T2 peptide: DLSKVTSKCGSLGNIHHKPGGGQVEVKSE

tau peptide 352-380 = biological target: T3, tau peptide 352-380 (human)
T3 construct: Synthetic peptide (EZBiolabs), numbered on tau 2N4R
T3 peptide: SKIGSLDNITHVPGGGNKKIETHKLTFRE

tau peptide 282-311 = biological target: T4, tau peptide 282-311 (human)
T4 construct: Synthetic peptide (EZBiolabs), numbered on tau 2N4R; also called peptide derived from MTBRII
T4 peptide: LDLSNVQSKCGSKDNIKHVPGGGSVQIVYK

Measured: binding result

B1: mouse monoclonal antibody DC8E8 (antibody, mouse IgG1)
heavy: QVQLQQSGPELVKPGTSVKMPCKASGYIFTDYVISWVKQRTGQGLEWIGEIFPRSGSTYYNEKFKGKATLTADKSSNTAYMQLSSVTSEDSAVYFCARDYYGTSFAMDYWGQGTSVTVSSAKTTPPSVYPLAPGSAAQTNSMVTLGCLVKGYFPEPVTVTWNSGSLSSGVHTFPAVLQSDLYTLSSSVTVPSSTWPSQTVTCNVAHPASSTKVDKKIVPRDCGCKPCICTVPEVSSVFIFPPKPKDVLTITLTPKVTCVVVDISKDDPEVQFSWFVDDVEVHTAQTKPREEQINSTFRSVSELPIMHQDWLNGKEFKCRVNSAAFPAPIEKTISKTKGRPKAPQVYTIPPPKEQMAKDKVSLTCMITNFFPEDITVEWQWNGQPAENYKNTQPIMDTDGSYFVYSKLNVQKSNWEAGNTFTCSVLHEGLHNHHTEKSLSHSPGK
VL: DIVMSQSPSSLAVSAGEKVTMSCKSSQSLLNSRTRKNYLAWYQQKPGQSPKLLIYWASTRESGVPDRFTGSGSGTDFTLTISSVQAEDLAVYYCKQSFYLRTFGGGTKLDIK
notes: also called murine DC8E8; mouse DC8E8
binds: tau peptide 256-285 | tau peptide 314-342 | tau peptide 352-380

B2: chimeric DC8E8 (isotype not stated where tested) (antibody)
VH: QVQLQQSGPELVKPGTSVKMPCKASGYIFTDYVISWVKQRTGQGLEWIGEIFPRSGSTYYNEKFKGKATLTADKSSNTAYMQLSSVTSEDSAVYFCARDYYGTSFAMDYWGQGTSVTVSS
light: DIVMSQSPSSLAVSAGEKVTMSCKSSQSLLNSRTRKNYLAWYQQKPGQSPKLLIYWASTRESGVPDRFTGSGSGTDFTLTISSVQAEDLAVYYCKQSFYLRTFGGGTKLDIKRTVAAPSVFIFPPSDEQLKSGTASVVCLLNNFYPREAKVQWKVDNALQSGNSQESVTEQDSKDSTYSLSSTLTLSKADYEKHKVYACEVTHQGLSSPVTKSFNRGEC
notes: Whole chimeric antibody with human constant regions; also called chimeric antibody
binds: tau peptide 282-311 | tau peptide 256-285 | tau peptide 314-342 | tau peptide 352-380
